Target: SET-26::GFP, excessively sumoylated (ulp-2 loss of activity background) (C. elegans) (UniProt Q9U263)
Assay: co-IP

Chain of UniProt Q9U263 (Q9U263 whole entry): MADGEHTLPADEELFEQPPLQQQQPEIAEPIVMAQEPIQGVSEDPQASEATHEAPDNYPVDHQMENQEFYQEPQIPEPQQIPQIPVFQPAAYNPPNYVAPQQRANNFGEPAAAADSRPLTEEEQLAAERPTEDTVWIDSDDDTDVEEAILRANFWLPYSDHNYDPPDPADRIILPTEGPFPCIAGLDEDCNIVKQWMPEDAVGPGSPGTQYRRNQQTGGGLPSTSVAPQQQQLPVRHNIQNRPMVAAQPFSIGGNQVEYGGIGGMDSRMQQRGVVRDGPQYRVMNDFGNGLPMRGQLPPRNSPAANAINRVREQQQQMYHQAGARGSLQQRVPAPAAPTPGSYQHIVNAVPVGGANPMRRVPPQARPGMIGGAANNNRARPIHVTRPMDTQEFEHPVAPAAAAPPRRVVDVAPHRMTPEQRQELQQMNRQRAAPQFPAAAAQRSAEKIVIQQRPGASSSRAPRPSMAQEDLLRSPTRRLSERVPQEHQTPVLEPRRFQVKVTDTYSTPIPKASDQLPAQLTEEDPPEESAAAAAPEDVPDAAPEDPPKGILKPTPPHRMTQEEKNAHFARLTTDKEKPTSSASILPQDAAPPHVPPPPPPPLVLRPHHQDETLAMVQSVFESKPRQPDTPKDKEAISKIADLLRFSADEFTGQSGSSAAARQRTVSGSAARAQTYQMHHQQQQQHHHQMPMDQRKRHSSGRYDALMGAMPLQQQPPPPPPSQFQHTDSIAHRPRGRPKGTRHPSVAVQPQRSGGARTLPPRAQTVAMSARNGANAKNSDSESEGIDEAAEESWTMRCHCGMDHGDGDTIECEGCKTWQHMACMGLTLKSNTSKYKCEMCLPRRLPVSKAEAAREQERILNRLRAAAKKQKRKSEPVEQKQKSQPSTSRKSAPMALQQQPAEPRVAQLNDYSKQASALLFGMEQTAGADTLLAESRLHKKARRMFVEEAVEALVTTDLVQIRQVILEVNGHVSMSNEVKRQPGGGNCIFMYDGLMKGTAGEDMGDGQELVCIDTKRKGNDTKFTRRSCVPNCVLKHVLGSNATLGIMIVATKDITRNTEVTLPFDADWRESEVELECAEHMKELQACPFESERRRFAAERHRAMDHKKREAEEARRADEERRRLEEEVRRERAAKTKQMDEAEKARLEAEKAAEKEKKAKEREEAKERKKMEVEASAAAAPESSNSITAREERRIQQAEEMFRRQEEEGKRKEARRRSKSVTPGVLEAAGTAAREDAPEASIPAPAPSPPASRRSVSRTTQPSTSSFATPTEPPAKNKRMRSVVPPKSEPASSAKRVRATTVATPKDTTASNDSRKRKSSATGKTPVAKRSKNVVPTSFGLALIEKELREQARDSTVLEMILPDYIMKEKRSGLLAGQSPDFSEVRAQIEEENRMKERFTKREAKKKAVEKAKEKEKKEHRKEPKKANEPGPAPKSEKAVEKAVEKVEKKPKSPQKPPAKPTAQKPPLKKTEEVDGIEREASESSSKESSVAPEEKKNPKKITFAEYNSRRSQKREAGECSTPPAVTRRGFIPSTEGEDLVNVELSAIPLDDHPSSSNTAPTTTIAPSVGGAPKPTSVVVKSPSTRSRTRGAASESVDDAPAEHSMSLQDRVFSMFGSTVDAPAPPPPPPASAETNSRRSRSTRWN

- reduction of binding compared with WT: 55%
Substance: Histone H3 trimethylated at lysine 4 (H3K4me3) (from UniProt P08898 1-136) (natural protein)

Source: paper doi:10.1101/2024.02.27.582283
